Experiments:
ephrin-B2 (Homo sapiens) = ephrin-B2 (Homo sapiens) (UniProt P52799); details: cited from earlier work
[1] = target: ephrin-B2-Fc (extracellular region of murine ephrin-B2, Fc fusion) (murine) (UniProt P52800); experiment: BLI; BLItz instrument; Protein-A biosensor loaded with 50 ug/ml purified Fc-tagged ephrin-B2, washed with HBS; EphB6-ECD at 100 nM and 1 uM, association and dissociation 3 min each; apparent Kd
[2] = target: ephrin-B2-Fc (extracellular region of murine ephrin-B2, Fc fusion) (murine) (UniProt P52800); experiment: SEC; Superdex 200 FPLC of the EphB6-ECD/ephrin-B2 complex, micromolar concentration range

Chain of UniProt P52799 (P52799 28-229): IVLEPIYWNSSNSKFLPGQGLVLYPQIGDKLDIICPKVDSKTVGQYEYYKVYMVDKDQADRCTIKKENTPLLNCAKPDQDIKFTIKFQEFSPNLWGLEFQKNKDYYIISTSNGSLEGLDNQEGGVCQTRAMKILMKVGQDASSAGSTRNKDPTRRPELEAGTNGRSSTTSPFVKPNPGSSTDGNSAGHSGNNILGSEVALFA

Substance | Kd (ephrin-B2 (Homo sapiens)) [nM] | Kd [1] [nM] | stoichiometry N [2]
EphB2 (from UniProt P29323) | 8.6 |  | 
EphB6 receptor ectodomain (EphB6-ECD) (from UniProt O15197 32-594) (domain or fragment) |  | 88.5 | 1

— article PMC7997048
